Blank lines part the entries; values can stand above or below the molecule they belong to. Square brackets hold non-standard residues; d marks the D form. Ends that are not written are not given here. Peptide text beside a SMILES is read from it. * marks the point of attachment. FITC = O=C1OC2(c3ccc(O)cc3Oc3cc(O)ccc32)c2ccc(NC(=S)*)cc21; Biotin = O=C1N[C@H]2[C@H](CS[C@H]2CCCCC(=O)*)N1; pT = C[C@@H](OP(=O)(O)O)[C@H](N)C(=O)O
Assays:
PDZ2 of NHERF1 [1] = molecular target: T1, PDZ2 of NHERF1 (Homo sapiens, UniProt O14745); assay: Surface plasmon resonance, NHERF1 PDZ2; type: binding
T1 sequence (O14745 133-300): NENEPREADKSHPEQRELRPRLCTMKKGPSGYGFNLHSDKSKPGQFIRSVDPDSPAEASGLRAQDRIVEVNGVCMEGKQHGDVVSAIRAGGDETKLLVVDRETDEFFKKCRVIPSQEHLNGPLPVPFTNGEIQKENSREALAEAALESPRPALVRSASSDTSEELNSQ

[2] = molecular target: NHERF1 PDZ1 domain (1-140) (human) (UniProt O14745); assay: ITC
[3] = molecular target: NHERF1 PDZ2 domain (133-300) (human) (UniProt O14745); assay: ITC
PDZ1 of NHERF1 = molecular target: T2, PDZ1 of NHERF1 (Homo sapiens, UniProt O14745); assay: Isothermal titration calorimetry, NHERF1 PDZ1; type: binding
T2 sequence (O14745 1-140): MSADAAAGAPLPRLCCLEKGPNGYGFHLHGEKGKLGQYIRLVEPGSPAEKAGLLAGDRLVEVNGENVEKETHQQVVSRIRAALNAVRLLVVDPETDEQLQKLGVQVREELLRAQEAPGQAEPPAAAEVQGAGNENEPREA

PDZ2 of NHERF1 [4] = molecular target: T1, PDZ2 of NHERF1; assay: Isothermal titration calorimetry, NHERF1 PDZ2; type: binding
PTHR = assay: Mass spectrometry of PTHR phosphorylation in cell lysates; type: cell-based; settings: PTH(1–34) treatment; MS-MS of cell lysates
[5] = molecular target: T3, NHERF1 PDZ1 domain (1-140) (human, UniProt O14745 1-140); assay: SPR
T3 sequence (looked up): T2 sequence (O14745 1-140)

[6] = molecular target: T4, NHERF1 PDZ2 domain (133-300) (human, UniProt O14745 133-300); assay: SPR
T4 sequence (looked up): T1 sequence (O14745 133-300)

[7] = molecular target: T3, NHERF1 PDZ1 domain (1-140); assay: SPR; remark: listed apart in the source
[8] = molecular target: T4, NHERF1 PDZ2 domain (133-300); assay: SPR; remark: listed apart in the source
[9] = molecular target: T4, NHERF1 PDZ2 domain (133-300); assay: fluorescence polarisation
[10] = molecular target: T3, NHERF1 PDZ1 domain (1-140); assay: ITC
[11] = molecular target: T4, NHERF1 PDZ2 domain (133-300); assay: ITC
[12] = molecular target: T3, NHERF1 PDZ1 domain (1-140); assay: fluorescence polarisation
[13] = molecular target: T4, NHERF1 PDZ2 domain (133-300); assay: fluorescence polarisation; remark: listed apart in the source
[14] = molecular target: T3, NHERF1 PDZ1 domain (1-140); assay: fluorescence polarisation; remark: listed apart in the source
[15] = molecular target: T4, NHERF1 PDZ2 domain (133-300); assay: fluorescence polarisation; remark: listed apart in the source
[16] = molecular target: T3, NHERF1 PDZ1 domain (1-140); assay: fluorescence polarisation; remark: listed apart in the source
[17] = molecular target: T4, NHERF1 PDZ2 domain (133-300); assay: fluorescence polarisation; remark: listed apart in the source
[18] = molecular target: T3, NHERF1 PDZ1 domain (1-140); assay: fluorescence polarisation; remark: listed apart in the source
[19] = molecular target: T4, NHERF1 PDZ2 domain (133-300); assay: fluorescence polarisation; remark: listed apart in the source
[20] = molecular target: T3, NHERF1 PDZ1 domain (1-140); assay: fluorescence polarisation; remark: listed apart in the source

Molecule: CSCC[C@H](NC(=O)[C@@H](NC(=O)[C@@H](NC(=O)[C@H](CCC(=O)O)NC(=O)[C@H](Cc1c[nH]c2ccccc12)NC(=O)[C@H](CCC(=O)O)NC(=O)[C@H](CCC(=O)O)NC(=O)[C@H](CCC(N)=O)NC(=O)[C@H](CC(C)C)NC(=O)[C@H](CC(C)C)NC(=O)[C@H](C)NC(=O)[C@@H]1CCCN1C(=O)[C@@H]1CCCN1C(=O)[C@H](CCCNC(=N)N)NC(=O)[C@H](CCC(=O)O)NC(=O)[C@@H]1CCCN1C(=O)CNC(=O)[C@H](CO)NC(=O)[C@H](C)NC(=O)[C@H](CCC(=O)O)NC(=O)[C@H](CCC(=O)O)NC(=O)[C@H](CC(=O)O)NC(=O)CCCC[C@@H]1SC[C@@H]2NC(=O)N[C@@H]21)[C@@H](C)O)C(C)C)C(=O)O [b-PTHRct-22] (Biotin-DEEASGPERPPALLQEEWETVM-OH)
Kd (PDZ2 of NHERF1 [1]): 11.5 ± 0.4 µM

Molecule: PTHRct-8 peptide with Ala at Glu-3
Kd [2]: 34.2 µM | stoichiometry N [2]: 1.15 | Kd [3]: 35.5 µM | dH [3]: -8.6 kcal/mol | stoichiometry N [3]: 0.88

Molecule: PTHRct-8 peptide with Ala at Glu-5
Kd [2]: 25.5 µM | dH [2]: -7.6 kcal/mol | stoichiometry N [2]: 1.21 | Kd [3]: 26.8 µM | dH [3]: -10.3 kcal/mol

Molecule: PTHRct-8 peptide with Ala at Glu-6
Kd [2]: 13.1 µM | dH [2]: -4.3 kcal/mol | stoichiometry N [2]: 1.1 | Kd [3]: 18.1 µM | stoichiometry N [3]: 1.12

Molecule: PTHRct-8 peptide with Ala at Glu-6 and Glu-5
Kd [2]: 24.4 µM | dH [2]: -3.8 kcal/mol | stoichiometry N [2]: 1.26 | Kd [3]: 57.8 µM | dH [3]: -7.2 kcal/mol | stoichiometry N [3]: 1.26

Molecule: QAAWETVM [QAAWETVM]
Kd (PDZ1 of NHERF1): 24.4 ± 0.6 µM

Molecule: QAEWETVM [QAEWETVM]
Kd (PDZ1 of NHERF1): 13.1 ± 1.7 µM | Kd (PDZ2 of NHERF1 [4]): 18.1 ± 2.4 µM

Molecule: human Nle^8,18Tyr^34-PTH(1–34)
phosphorylation of PTHR Thr591 (PTHR): promoted phosphorylation of Thr591

Molecule: {FITC}-LQEEWETVM [FITC-labeled carboxy-terminal PTHR 9-residue peptide]
Kd [12]: 400 nM | Kd [13]: 400 nM | Kd [14]: 1000 nM | Kd [15]: 600 nM | Kd [16]: 4.7 µM | Kd [17]: 2400 nM | Kd [18]: 1000 nM | Kd [19]: 600 nM

Molecule: LQEEWETVM [unlabeled carboxy-terminal PTHR 9-residue peptide]
Ki [20]: 1.4 ± 0.9 µM

Further lines, results first:

n (stoichiometry) (PDZ1 of NHERF1; ITC, PDZ1, 25 °C, mean ± S.E.M. (n = 3)): 1.12 ± 0.03 | n (stoichiometry) (PDZ2 of NHERF1 [4]; ITC, PDZ2, 25 °C, mean ± S.E.M. (n = 3)): 1.04 ± 0.02
Molecule: QEAWATVM

Kd (PDZ1 of NHERF1): 25.5 ± 1.1 µM | Kd (PDZ2 of NHERF1 [4]): 26.8 ± 2.1 µM
Molecule: QEAWETVM [QEAWETVM]

Kd (PDZ1 of NHERF1): 34.2 ± 0.5 µM | Kd (PDZ2 of NHERF1 [4]): 35.5 ± 2 µM
Molecule: QEEWATVM [QEEWATVM]

koff [5]: 0.606 s⁻¹ | kon [5]: 14700 M⁻¹ s⁻¹ | koff [6]: 0.393 s⁻¹ | kon [6]: 57000 M⁻¹ s⁻¹ | Kd [7]: 16 µM | Kd [8]: 11.5 µM | Ki [9]: 7 µM
Molecule: Biotin-DEEASGPERPPALLQEEWETVM [biotinylated carboxy-terminal 22-amino acid PTHR peptide]

Kd [10]: 11.7 µM | dH [10]: -10.6 kcal/mol | stoichiometry N [10]: 1.11 | Kd [11]: 9.7 µM | dH [11]: -21.6 kcal/mol | stoichiometry N [11]: 1.13
Molecule: QEEWETVM [wild-type PTHRct-8 peptide]

Ki [20]: 121 µM
Molecule: LQEEWE[pT]VM [phosphorylated Thr-2-PTHRct-9]

Ki [20]: 11 µM
Molecule: LQEEWECVM [Thr-2/Cys-2 mutant of PTHRct-9]

From article PMC5479578 (Biochemistry, 2017)
